Experimental data as given in the supplement of paper PMC7877785.
± gives the uncertainty stated by the source.

Assay: self-splicing fitness, log relative to wild type (ln ratio); higher = more splicing; Tetrahymena group I intron in knt gene, E. coli kanamycin selection, DiMSum; sequences stand for … in CUCUCU…GGAGGGAAAAGUUAUCAGGCAUGCACCUGGUAGCUAGUCUUUAAACCAAUAGAUUGCAUCGGUUUAAAAGGCAAGACCGUCAAAUUGCGGGAAAGGGGUCAACAGCCGUUCAGUACCAAGUCUCAGGGGAAACUUUGAGAUGGCCUUGCAAAGGGUAUGGUAAUAAGCUGACGGACAUGGUCCUAACCACGCAGCCAAGUCCUAAGUCAACAGAUCUUCUGUUGAUAUGGAUGCAGUUCACAGACUAAAUGUCGGUCGGGGAAGAUGUAUUCUUCUCAUAAGAUAUAGUCGGACCUCUCCUUAAUGGGAGCUAGCGGAUGAAGUGAUGCAACACUGGAGCCGCUGGGAACUAAUUUGUAUGCGAAAGUAUAUUGAUUAGUUUUGGAGUACUCGUGGUCG
Summary of the method: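 The eight P1ex-region nucleotides of an intron in the knt kanamycin-resistance gene on pET-22b(+) were all randomised and the library put into E. coli BL21(DE3). Six replicate transformations were grown overnight at 37°C or 30°C on LB agar with or without 25 μg/mL kanamycin, together with 100 μg/mL carbenicillin, 50 μM IPTG and 0.2% rhamnose. Colonies were pooled and amplicon-sequenced on an Illumina HiSeq 2500. Fitness from DiMSum is the error-weighted combination of wild-type-normalised replicate fold changes, kanamycin over none.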

Row | Sequence | self-splicing fitness (ln) (30 °C) | self-splicing fitness (ln) (37 °C)
1 | UACAAGCAAUAUUACGAGGU | -4.06 ± 0.28 | -1.94 ± 0.28
2 | GGCAAGCAAUAUUACGGUCG | -0.22 ± 0.072 | 0.553 ± 0.099
3 | UGGCAGCAAUAUUACGAGGG | -3.44 ± 0.23 | -2.73 ± 0.25
4 | CUAUAGCAAUAUUACGAGGA | -3.62 ± 0.41 | -1.73 ± 0.31
5 | GAAUAGCAAUAUUACGCCGC |  | -1.45 ± 0.43
6 | UUGAAGCAAUAUUACGGGAG | -1.2 ± 0.1 | -0.884 ± 0.12
7 | AAUGAGCAAUAUUACGUUCG | -1.74 ± 0.11 | -0.765 ± 0.12
8 | AGCGAGCAAUAUUACGCGAU | -1.78 ± 0.25 | -2.2 ± 0.36
9 | CGACAGCAAUAUUACGUGAC | -3.67 ± 0.24 | -2.61 ± 0.31
10 | CGGUAGCAAUAUUACGGGGG | -3.21 ± 0.22 | -3.01 ± 0.43
11 | AUUAAGCAAUAUUACGGUGG | -3.17 ± 0.28 | -1.94 ± 0.22
12 | GAAUAGCAAUAUUACGUAUU | -2.18 ± 0.15 | -1.45 ± 0.14
13 | AGAUAGCAAUAUUACGCCUU | -0.881 ± 0.09 | -0.255 ± 0.11
14 | GUACAGCAAUAUUACGUCCU | -1.4 ± 0.12 | -0.91 ± 0.11
15 | GCAGAGCAAUAUUACGGGAA | -2.68 ± 0.19 | -1.96 ± 0.18
16 | GGACAGCAAUAUUACGGGCG | -0.664 ± 0.075 | -0.0669 ± 0.09
17 | GGCCAGCAAUAUUACGUUGU | -0.721 ± 0.072 | -0.537 ± 0.1
18 | GCGUAGCAAUAUUACGUCUC |  | -2.6 ± 0.39
19 | GUAGAGCAAUAUUACGGAUU | -2.61 ± 0.24 | -0.513 ± 0.2
20 | CCAUAGCAAUAUUACGCUCA | -3.11 ± 0.18 | -2.16 ± 0.25
21 | GGAGAGCAAUAUUACGAUAA |  | -0.957 ± 0.43
22 | UGCGAGCAAUAUUACGAAGC |  | -2.3 ± 0.42
23 | ACCUAGCAAUAUUACGCCAU | -3.51 ± 0.27 | -1.21 ± 0.19
24 | GCGUAGCAAUAUUACGUUCG | -1.48 ± 0.33 | -1.52 ± 0.32
25 | CAAGAGCAAUAUUACGUAAA | -4.16 ± 0.29 | -3.01 ± 0.26

Row | Sequence | self-splicing fitness (ln) (30 °C) | self-splicing fitness (ln) (37 °C)
26 | UUAUAGCAAUAUUACGUAAA | -1.34 ± 0.19 | -1.58 ± 0.22
27 | GCUCAGCAAUAUUACGCUGU | -1.22 ± 0.073 | -0.159 ± 0.081
28 | UAUUAGCAAUAUUACGCACA | -0.485 ± 0.13 | -0.0783 ± 0.23
29 | UUGAAGCAAUAUUACGACCA | -0.132 ± 0.12 | 0.61 ± 0.15
30 | AGCUAGCAAUAUUACGUGGA | -3.53 ± 0.2 | -2.04 ± 0.14
31 | UGCUAGCAAUAUUACGAUUG | -1.16 ± 0.13 | -1.51 ± 0.14
32 | CGCAAGCAAUAUUACGGAGA | -3.09 ± 0.18 | -2.54 ± 0.19
33 | CAGCAGCAAUAUUACGCGCA | -0.471 ± 0.13 | -0.346 ± 0.16
34 | UAACAGCAAUAUUACGACGU | -1.16 ± 0.071 | -0.452 ± 0.091
35 | GUCAAGCAAUAUUACGUGUU | -2.85 ± 0.089 | -1.35 ± 0.089
36 | AGCGAGCAAUAUUACGUAAC | -3.79 ± 0.29 | -1.46 ± 0.24
37 | GGCAAGCAAUAUUACGCAGG | -2.1 ± 0.12 | -2.29 ± 0.2
38 | UGUCAGCAAUAUUACGUAGU | -2.85 ± 0.15 | -0.865 ± 0.11
39 | AAGAAGCAAUAUUACGAACC | -0.581 ± 0.14 | -0.25 ± 0.17
40 | GAUAAGCAAUAUUACGUCCC | -0.291 ± 0.2 | -0.349 ± 0.25
41 | CCCGAGCAAUAUUACGAAUA | -3.44 ± 0.2 | -2.89 ± 0.21
42 | GCACAGCAAUAUUACGGCCC | -0.235 ± 0.1 | -0.615 ± 0.13
43 | GAGGAGCAAUAUUACGCGGU | -3.21 ± 0.28 | -2.76 ± 0.31
44 | AUCUAGCAAUAUUACGUGUC | -3.9 ± 0.36 | -2.64 ± 0.24
45 | GGCGAGCAAUAUUACGCUCU | -2.72 ± 0.23 | -2.06 ± 0.2
46 | CAAUAGCAAUAUUACGCAAC | -3.75 ± 0.34 | -1.91 ± 0.39
47 | AAUGAGCAAUAUUACGUGUA | -3.35 ± 0.23 | -2.56 ± 0.21
48 | AACAAGCAAUAUUACGGUUC | -2.97 ± 0.12 | -2.43 ± 0.12
49 | ACAGAGCAAUAUUACGCUCU | -3.01 ± 0.24 | -2.41 ± 0.49
50 | UUAUAGCAAUAUUACGGUUC | -2.77 ± 0.23 | -2.16 ± 0.25

Row | Sequence | self-splicing fitness (ln) (30 °C) | self-splicing fitness (ln) (37 °C)
51 | UUAAAGCAAUAUUACGGGUA | -0.431 ± 0.069 | 0.283 ± 0.08
52 | ACGAAGCAAUAUUACGUUUA | -2.05 ± 0.11 | -0.875 ± 0.085
53 | UCACAGCAAUAUUACGGGUC | -3.67 ± 0.16 | -2.79 ± 0.14
54 | UACAAGCAAUAUUACGUGGA | -2.82 ± 0.15 | -2.27 ± 0.11
55 | UAGGAGCAAUAUUACGGCUC | -2.64 ± 0.24 | 
56 | GAAUAGCAAUAUUACGGCCA | -0.596 ± 0.1 | -0.0233 ± 0.13
57 | GGAGAGCAAUAUUACGUUAU | -3.27 ± 0.23 | -2.98 ± 0.32
58 | CCCUAGCAAUAUUACGAUCU | -3.92 ± 0.28 | -2.74 ± 0.24
59 | AAAUAGCAAUAUUACGACUG | -0.98 ± 0.12 | -0.722 ± 0.18
60 | AACCAGCAAUAUUACGCGCA | -0.111 ± 0.068 | -0.00763 ± 0.089
61 | UCCGAGCAAUAUUACGGCAC | -2.01 ± 0.18 | -2.76 ± 0.24
62 | CCAUAGCAAUAUUACGUCGA | -3.03 ± 0.28 | -2.2 ± 0.27
63 | GUCAAGCAAUAUUACGCUCU | -1.58 ± 0.14 | -1.18 ± 0.14
64 | AAGAAGCAAUAUUACGUUUC | -3.62 ± 0.23 | -3.15 ± 0.26
65 | UCUAAGCAAUAUUACGAGCA | -1.38 ± 0.15 | -0.145 ± 0.15
66 | AAAUAGCAAUAUUACGUUGG | -4.2 ± 0.22 | -2.57 ± 0.21
67 | UCAGAGCAAUAUUACGACCU | -2.87 ± 0.36 | 
68 | CCAAAGCAAUAUUACGGAAA | -1.03 ± 0.26 | -3 ± 0.38
69 | GCCCAGCAAUAUUACGGAGC | -4.06 ± 0.39 | -2.17 ± 0.34
70 | UUUUAGCAAUAUUACGCGUG | -0.683 ± 0.088 | -0.0858 ± 0.096
71 | AAAGAGCAAUAUUACGUUUU | -2.46 ± 0.11 | -1.91 ± 0.12
72 | UUAUAGCAAUAUUACGCCAG | -1.64 ± 0.25 | -0.566 ± 0.27
73 | CGACAGCAAUAUUACGUCUC | -1.98 ± 0.13 | -2.13 ± 0.2
74 | CAAGAGCAAUAUUACGACAU | -3.534 ± 0.024 | -2.85 ± 0.041
75 | CACGAGCAAUAUUACGUCUG | -2.32 ± 0.095 | -0.929 ± 0.092

Row | Sequence | self-splicing fitness (ln) (30 °C) | self-splicing fitness (ln) (37 °C)
76 | GUACAGCAAUAUUACGGGUG | -2.02 ± 0.098 | -1.67 ± 0.13
77 | CAGGAGCAAUAUUACGCUGU | -3.13 ± 0.43 | -2.65 ± 0.44
78 | UAUGAGCAAUAUUACGGCCA |  | -1.18 ± 0.28
79 | GCUGAGCAAUAUUACGUAUG | -3.21 ± 0.16 | -2.61 ± 0.33
80 | UGGGAGCAAUAUUACGUGGC | -4.39 ± 0.39 | -1.68 ± 0.23
81 | UAGUAGCAAUAUUACGAGCU |  | -0.383 ± 0.21
82 | GUUAAGCAAUAUUACGACCG | -2.84 ± 0.48 | -1.22 ± 0.4
83 | GGGGAGCAAUAUUACGCCAC | -3.28 ± 0.27 | -3.39 ± 0.39
84 | CAACAGCAAUAUUACGUUCG | -0.959 ± 0.051 | -0.171 ± 0.065
85 | CGCAAGCAAUAUUACGUCUC | -3.36 ± 0.18 | -1.49 ± 0.15
86 | CUCGAGCAAUAUUACGUAGA | -3.34 ± 0.21 | -1.64 ± 0.14
87 | UCUCAGCAAUAUUACGUAUG | -2.86 ± 0.42 | -2.79 ± 0.38
88 | CAUCAGCAAUAUUACGCCGU | -2.51 ± 0.11 | -1.13 ± 0.15
89 | CCCCAGCAAUAUUACGCGUA | -3.87 ± 0.25 | -2.46 ± 0.18
90 | GUAAAGCAAUAUUACGCCCG | 0.162 ± 0.18 | -0.247 ± 0.19
91 | UUCCAGCAAUAUUACGCUCU | -3.04 ± 0.17 | -1.26 ± 0.14
92 | GCGCAGCAAUAUUACGGCGG | -2.48 ± 0.13 | -1.28 ± 0.15
93 | AUCUAGCAAUAUUACGAUAU | -1.15 ± 0.076 | -0.605 ± 0.1
94 | GUCGAGCAAUAUUACGGACA | -1.8 ± 0.49 | -1.95 ± 0.47
95 | CGACAGCAAUAUUACGUUCC | -1.82 ± 0.11 | -0.935 ± 0.14
96 | GAGAAGCAAUAUUACGAACC | -0.324 ± 0.14 | -0.188 ± 0.22
97 | UCAAAGCAAUAUUACGUCGC | -3.36 ± 0.18 | -2.43 ± 0.25
